Results as given in publication PMC7893823, “Structural basis of nucleosomal histone H4 lysine 20 methylation by SET8 methyltransferase” (Life Science Alliance, 2021).

Target: histone H4 (human, UniProt P62805 1-103)
Assay: cryo-EM structure; NCP or NCP^CENP-A (0.52 μM) mixed with SET8 (1.0 or 0.94 μM) at 25°C with 0.10 mM S-adenosyl-L-homocysteine, 50 mM NaCl, 50 mM KCl; complex purified by GraFix (sucrose gradient with paraformaldehyde cross-linking)
Settings: both partners purified

B1: human SET8 (KMT5A Isoform 2) (enzyme)
chain: MARGRKMSKPRAVEAAAAAAAVAATAPGPEMVERRGPGRPRTDGENVFTGQSKIYSYMSPNKCSGMRFPLQEENSVTHHEVKCQGKPLAGIYRKREEKRNAGNAVRSAMKSEEQKIKDARKGPLVPFPNQKSEAAEPPKTPPSSCDSTNAAIAKQALKKPIKGKQAPRKKAQGKTQQNRKLTDFYPVRRSSRKSKAELQSEERKRIDELIESGKEEGMKIDLIDGKGRGVIATKQFSRGDFVVEYHGDLIEITDAKKREALYAQDPSTGCYMYYFQYLSKTYCVDATRETNRLGRLINHSKCGNCQTKLHDIDGVPHLILIASRDIAAGEELLYDYGDRSKASIEAHPWLKH
notes: SET8 (KMT5A), human, isoform 2, UniProt Q9NQR1-2; residue numbers (Arg188, Arg192) count on isoform 2; His6 tag removed with PreScission protease (modified pET15b vector); also called PR-SET7; SETD8; source: E. coli BL21(DE3), purified (Ni-NTA, Mono S, Superdex 200)
Q: Does B1 bind?
A: Result: binds
